Where two headings read alike, the source gives them in different places. Blank lines part the entries; values can stand above or below the molecule they belong to.
What was measured:
[1] = target: rat CEACAM1 D(2–4)-His ectodomain (rat); test: cross-linking
[2] = target: the molecule itself; test: molecular electron tomography
[3] = target: the molecule itself; test: molecular electron tomography; remark: listed apart in the source
[4] = target: T1, rat CEACAM1 D(1–4)-Fc fusion protein (rat, UniProt P16573 35-425); test: SPR
T1 sequence (looked up): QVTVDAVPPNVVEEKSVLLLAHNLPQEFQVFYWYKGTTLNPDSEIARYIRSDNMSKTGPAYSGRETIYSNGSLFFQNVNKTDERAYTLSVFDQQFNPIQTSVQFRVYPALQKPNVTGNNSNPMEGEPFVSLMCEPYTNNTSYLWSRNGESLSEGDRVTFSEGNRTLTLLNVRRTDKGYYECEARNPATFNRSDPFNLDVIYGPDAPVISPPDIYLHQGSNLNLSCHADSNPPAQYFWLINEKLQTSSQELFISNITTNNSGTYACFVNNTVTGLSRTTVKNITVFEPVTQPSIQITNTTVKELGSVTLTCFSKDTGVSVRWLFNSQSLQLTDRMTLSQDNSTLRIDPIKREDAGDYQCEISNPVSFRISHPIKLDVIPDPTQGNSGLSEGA

fold lower percentage of cross-linked dimers than D(1–4) [1]: 4 fold lower
Molecule: rat CEACAM1 D(2–4)-His ectodomain (domain or fragment)

Kd [4]: 11.2 µM | koff [4]: 0.508 ± 0.0078 s⁻¹ | kon [4]: 45300 ± 3600 M⁻¹ s⁻¹
B1: rat CEACAM1 D(1–4)-His ectodomain (domain or fragment, UniProt P16573 35-425, looked up)
chain: T1 sequence (looked up)
modifications: glycosylated (polydisperse, varying degrees of glycosylation; average molecular mass 81 kD)
KD monomer/A-dimer [2]: 113 µM | KD monomer/C-dimer [2]: 43.8 µM | KD monomer/A-dimer [3]: 260 µM | KD monomer/C-dimer [3]: 72.1 µM

Reference: article PMC2779236 (The Journal of Cell Biology, 2009)
